The nature of this series: total protein half-life in vivo (active degradation + dilution); higher = more stable protein.
Where [1] appears, read: E. coli NCM3722 delta-smpB, growth: N-lim chemostat, doubling time 6 h.
[2] abbreviates: E. coli NCM3722 delta-clpP delta-lon delta-hslV, growth: N-lim chemostat, doubling time 6 h.
[3] abbreviates: E. coli NCM3722 delta-clpP, growth: N-lim chemostat, doubling time 6 h.
Where [4] appears, read: E. coli NCM3722 delta-hslV, growth: N-lim chemostat, doubling time 6 h.
[5] abbreviates: E. coli NCM3722 delta-lon, growth: N-lim chemostat, doubling time 6 h.
[6] abbreviates: wild type E. coli NCM3722, growth: C-lim chemostat, doubling time 3 h.
[7] abbreviates: wild type E. coli NCM3722, growth: C-lim chemostat, doubling time 6 h.
Where [8] appears, read: wild type E. coli NCM3722, growth: C-lim chemostat, doubling time 12 h.
Setting [9] is: wild type E. coli NCM3722, growth: N-lim chemostat, doubling time 6 h.
[10] abbreviates: wild type E. coli NCM3722, growth: N-lim chemostat, doubling time 12 h.
Setting [11] is: wild type E. coli NCM3722, growth: P-lim chemostat, doubling time 6 h.
[12] abbreviates: wild type E. coli NCM3722, growth: P-lim chemostat, doubling time 12 h.

± gives the standard deviation of the averaged measurements.

Consider “MSKSHPRWRLAKKILTWLFFIAVIVLLVVYAKKVDWEEVWKVIRDYNRVALLSAVGLVVVSYLIYGCYDLLARFYCGHKLAKRQVMLVSFICYAFNLTLSTWVGGIGMRYRLYSRLGLPGSTITRIFSLSITTNWLGYILLAGIIFTAGVVELPDHWYVDQTTLRILGIGLLMIIAVYLWFCAFAKHRHMTIKGQKLVLPSWKFALAQMLISSVNWMVMGAIIWLLLGQSVNYFFVLGVLLVSSIAGVIVHIPAGIGVLEAVFIALLAGEHTSKGTIIAALLAYRVLYYFIPLLLALICYLLLESQAKKLRAKNEAAM”, for which the “total protein half-life in vivo” value under setting [1] is 4.62 ± 0.87 h.

“MQNTTHDNVILELTVRNHPGVMTHVCGLFARRAFNVEGILCLPIQDSDKSHIWLLVNDDQRLEQMISQIDKLEDVVKVQRNQSDPTMFNKIAVFFQ [P0ADF8]”: the “total protein half-life in vivo” value is, setting by setting: under setting [2], 5.25 ± 2.1 h; under setting [3], 1.6 ± 0.35 h; under setting [4], 1.74 ± 0.22 h; under setting [5], 2.35 h; under setting [1], 1.62 ± 0.038 h; under setting [6], 2.47 ± 0.37 h. In addition, the “total protein half-life in vivo” value amounted to 3.63 ± 0.07 h under setting [7]; 4.56 ± 0.67 h under setting [8]; 1.447 ± 0.0047 h under setting [9]; 2.29 ± 0.29 h under setting [10]; 2.71 ± 0.66 h under setting [11]; 5.91 ± 0.75 h under setting [12].

Turning to “MELKKLMGHISIIPDYRQAWKMEHKLSDILLLTICAVISGAEGWEDIEDFGETHPDFLKQYGDFENGIPVHDTIARVVSCISPAKFHECFINWMRDCHSSDDKDVIAIDGKTLRHSYDKSRRRGAIHVISAFSTMHSLVIGQIKTDEKSNEITAIPELLNMLDIKGKIITTDAMGCQKDIAEKIQKQGGDYLFAVKGNQGRLNKAFEEKFPLKELNNPAHDSYAMSEKSHGREEIRLHIVCDVPDELIDFTFEWKGLKKLCVAVSFRSIIAEQKKELEMTVRYYISSADLTAEKFATAIRNHWHVENKLHWRLDVVMNEDDCKIRRGNAAELFSGIRHIAINILTNDKVFKAGLRRKMRKAAMDRNYLASVLTGSGLS”, the “total protein half-life in vivo” value was determined as 6.51 h under setting [2] and 11.9 h under setting [12].

“MSAGSPKFTVRRIAALSLVSLWLAGCSDTSNPPAPVSSVNGNAPANTNSGMLITPPPKMGTTSTAQQPQIQPVQQPQIQATQQPQIQPVQPVAQQPVQMENGRIVYNRQYGNIPKGSYSGSTYTVKKGDTLFYIAWITGNDFRDLAQRNNIQAPYALNVGQTLQVGNASGTPITGGNAITQADAAEQGVVIKPAQNSTVAVASQPTITYSESSGEQSANKMLPNNKPTATTVTAPVTVPTASTTEPTVSSTSTSTPISTWRWPTEGKVIETFGASEGGNKGIDIAGSKGQAIIATADGRVVYAGNALRGYGNLIIIKHNDDYLSAYAHNDTMLVREQQEVKAGQKIATMGSTGTSSTRLHFEIRYKGKSVNPLRYLPQR [P0ADA3]”: the “total protein half-life in vivo” value is, setting by setting: under setting [2], 5.97 ± 0.43 h; under setting [3], 6.2 ± 0.18 h; under setting [4], 6.44 ± 0.29 h; under setting [5], 7.02 ± 0.32 h; under setting [1], 6.32 ± 0.11 h; under setting [6], 2.926 ± 0.019 h. In addition, the “total protein half-life in vivo” value reads like this: under setting [7], 5.92 ± 0.28 h; under setting [8], 12.8 ± 3.5 h; under setting [9], 6.01 ± 0.067 h; under setting [11], 5.81 ± 0.16 h; under setting [12], 12 ± 0.81 h.

As for “MAEETIFSKIIRREIPSDIVYQDDLVTAFRDISPQAPTHILIIPNILIPTVNDVSAEHEQALGRMITVAAKIAEQEGIAEDGYRLIMNTNRHGGQEVYHIHMHLLGGRPLGPMLAHKGL [P0ACE7]”, the “total protein half-life in vivo” value reads like this: under setting [3], 5.01 ± 0.59 h; under setting [4], 4.88 ± 0.38 h; under setting [1], 4.71 ± 0.36 h; under setting [6], 3.32 ± 0.21 h; under setting [7], 5.24 ± 0.32 h; under setting [8], 8.75 ± 1.9 h. Also, the “total protein half-life in vivo” value worked out at 4.31 ± 0.051 h under setting [9], 7.64 ± 0.66 h under setting [10], 5.65 ± 0.32 h under setting [11] and 12 ± 1.3 h under setting [12].

Regarding “MSNTPIELKGSSFTLSVVHLHEAEPKVIHQALEDKIAQAPAFLKHAPVVLNVSALEDPVNWSAMHKAVSATGLRVIGVSGCKDAQLKAEIEKMGLPILTEGKEKAPRPAPTPQAPAQNTTPVTKTRLIDTPVRSGQRIYAPQCDLIVTSHVSAGAELIADGNIHVYGMMRGRALAGASGDRETQIFCTNLMAELVSIAGEYWLSDQIPAEFYGKAARLQLVENALTVQPLN”, the “total protein half-life in vivo” value under setting [2] came out at 5.53 ± 0.29 h; the “total protein half-life in vivo” value under setting [3] was determined as 5 ± 0.28 h; the “total protein half-life in vivo” value under setting [4] came out at 5.32 ± 0.053 h; the “total protein half-life in vivo” value under setting [5] was found to be 5.84 ± 0.27 h; the “total protein half-life in vivo” value under setting [1] stood at 4.34 ± 0.23 h; the “total protein half-life in vivo” value under setting [6] came to 2.977 ± 0.015 h. Also, the “total protein half-life in vivo” value reads like this: under setting [7], 5.72 ± 0.27 h; under setting [8], 9.85 ± 0.83 h; under setting [9], 5.25 ± 0.7 h; under setting [10], 8.75 ± 0.6 h; under setting [11], 5.44 ± 0.24 h; under setting [12], 11.2 ± 1 h.

Take “MATIKDVAKRANVSTTTVSHVINKTRFVAEETRNAVWAAIKELHYSPSAVARSLKVNHTKSIGLLATSSEAAYFAEIIEAVEKNCFQKGYTLILGNAWNNLEKQRAYLSMMAQKRVDGLLVMCSEYPEPLLAMLEEYRHIPMVVMDWGEAKADFTDAVIDNAFEGGYMAGRYLIERGHREIGVIPGPLERNTGAGRLAGFMKAMEEAMIKVPESWIVQGDFEPESGYRAMQQILSQPHRPTAVFCGGDIMAMGALCAADEMGLRVPQDVSLIGYDNVRNARYFTPALTTIHQPKDSLGETAFNMLLDRIVNKREEPQSIEVHPRLIERRSVADGPFRDYRR [P0ACP7]”: the “total protein half-life in vivo” value by setting is: under setting [2], 5.38 ± 0.92 h; under setting [3], 5.291 ± 0.032 h; under setting [4], 4.538 ± 0.044 h; under setting [5], 5.39 ± 0.36 h; under setting [1], 4.55 ± 0.3 h; under setting [6], 3.02 ± 0.049 h. Besides, the “total protein half-life in vivo” value stood at 5.87 ± 0.35 h under setting [7]; 10.4 ± 1.1 h under setting [8]; 5.02 ± 0.61 h under setting [9]; 7.74 ± 1.6 h under setting [10]; 5.29 ± 0.41 h under setting [11]; 10.9 ± 1.4 h under setting [12].

“MNKHTEHDTREHLLATGEQLCLQRGFTGMGLSELLKTAEVPKGSFYHYFRSKEAFGVAMLERHYAAYHQRLTELLQSGEGNYRDRILAYYQQTLNQFCQHGTISGCLTVKLSAEVCDLSEDMRSAMDKGARGVIALLSQALENGRENHCLTFCGEPLQQAQVLYALWLGANLQAKISRSFEPLENALAHVKNIIATPAV”: the “total protein half-life in vivo” value is, setting by setting: under setting [2], 5.12 h; under setting [3], 4.66 ± 0.51 h; under setting [4], above 8 h; under setting [5], 6.18 h; under setting [1], 4.66 ± 0.14 h; under setting [6], 3.13 ± 0.15 h. In addition, the “total protein half-life in vivo” value amounted to 5.91 ± 0.12 h under setting [7]; 11.7 h under setting [8]; 7.06 h under setting [9]; 5.25 h under setting [11]; 12.7 h under setting [12].

For the sequence “MNVFNPAQFRAQFPALQDAGVYLDSAATALKPEAVVEATQQFYSLSAGNVHRSQFAEAQRLTARYEAAREKVAQLLNAPDDKTIVWTRGTTESINMVAQCYARPRLQPGDEIIVSVAEHHANLVPWLMVAQQTGAKVVKLPLNAQRLPDVDLLPELITPRSRILALGQMSNVTGGCPDLARAITFAHSAGMVVMVDGAQGAVHFPADVQQLDIDFYAFSGHKLYGPTGIGVLYGKSELLEAMSPWLGGGKMVHEVSFDGFTTQSAPWKLEAGTPNVAGVIGLSAALEWLADYDINQAESWSRSLATLAEDALAKRPGFRSFRCQDSSLLAFDFAGVHHSDMVTLLAEYGIALRAGQHCAQPLLAELGVTGTLRASFAPYNTKSDVDALVNAVDRALELLVD”, the “total protein half-life in vivo” value is, setting by setting: under setting [2], 4.06 ± 0.23 h; under setting [3], 3.13 ± 0.13 h; under setting [4], 3.71 ± 0.079 h; under setting [5], 4.38 ± 0.57 h; under setting [1], 3.52 ± 0.088 h; under setting [6], 2.97 ± 0.082 h. Further, the “total protein half-life in vivo” value under setting [7] stood at 5.59 ± 0.13 h; the “total protein half-life in vivo” value under setting [8] was found to be 10.8 ± 2.4 h; the “total protein half-life in vivo” value under setting [9] amounted to 4.11 ± 0.22 h; the “total protein half-life in vivo” value under setting [10] stood at 6.8 ± 0.74 h; the “total protein half-life in vivo” value under setting [11] turned out to be 5.86 ± 0.26 h; the “total protein half-life in vivo” value under setting [12] is 13.3 ± 3.4 h.
